Laboratory results: patent publication US20200325220A1 (INSTITUTE FOR RESEARCH IN BIOMEDICINE, published 2020)

Assays:
[1] = biological target: T1, recombinant human GM-CSF (human, UniProt P04141 18-144); experiment: SPR, GM-CSF on the chip, antibody then collagen
[2] = biological target: T1, recombinant human GM-CSF; experiment: SPR, GM-CSF on the chip
[3] = biological target: T1, recombinant human GM-CSF; experiment: ELISA, plate coated with GM-CSF
[4] = biological target: T2, type I recombinant human collagen (human, UniProt P02452 162-1218; P08123 80-1119); experiment: SPR, GM-CSF on the chip, antibody then collagen
[5] = biological target: T1, recombinant human GM-CSF; experiment: SPR, antibody captured on protein A, GM-CSF then collagen
[6] = biological target: T2, type I recombinant human collagen; experiment: as above

T1 sequence (P04141 18-144 limits assumed): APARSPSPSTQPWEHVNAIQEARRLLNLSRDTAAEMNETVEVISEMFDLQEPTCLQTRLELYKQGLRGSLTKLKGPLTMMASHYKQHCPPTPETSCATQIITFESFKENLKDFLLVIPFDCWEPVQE
T2 sequence (P02452 162-1218 limits assumed, chain 1 of 2): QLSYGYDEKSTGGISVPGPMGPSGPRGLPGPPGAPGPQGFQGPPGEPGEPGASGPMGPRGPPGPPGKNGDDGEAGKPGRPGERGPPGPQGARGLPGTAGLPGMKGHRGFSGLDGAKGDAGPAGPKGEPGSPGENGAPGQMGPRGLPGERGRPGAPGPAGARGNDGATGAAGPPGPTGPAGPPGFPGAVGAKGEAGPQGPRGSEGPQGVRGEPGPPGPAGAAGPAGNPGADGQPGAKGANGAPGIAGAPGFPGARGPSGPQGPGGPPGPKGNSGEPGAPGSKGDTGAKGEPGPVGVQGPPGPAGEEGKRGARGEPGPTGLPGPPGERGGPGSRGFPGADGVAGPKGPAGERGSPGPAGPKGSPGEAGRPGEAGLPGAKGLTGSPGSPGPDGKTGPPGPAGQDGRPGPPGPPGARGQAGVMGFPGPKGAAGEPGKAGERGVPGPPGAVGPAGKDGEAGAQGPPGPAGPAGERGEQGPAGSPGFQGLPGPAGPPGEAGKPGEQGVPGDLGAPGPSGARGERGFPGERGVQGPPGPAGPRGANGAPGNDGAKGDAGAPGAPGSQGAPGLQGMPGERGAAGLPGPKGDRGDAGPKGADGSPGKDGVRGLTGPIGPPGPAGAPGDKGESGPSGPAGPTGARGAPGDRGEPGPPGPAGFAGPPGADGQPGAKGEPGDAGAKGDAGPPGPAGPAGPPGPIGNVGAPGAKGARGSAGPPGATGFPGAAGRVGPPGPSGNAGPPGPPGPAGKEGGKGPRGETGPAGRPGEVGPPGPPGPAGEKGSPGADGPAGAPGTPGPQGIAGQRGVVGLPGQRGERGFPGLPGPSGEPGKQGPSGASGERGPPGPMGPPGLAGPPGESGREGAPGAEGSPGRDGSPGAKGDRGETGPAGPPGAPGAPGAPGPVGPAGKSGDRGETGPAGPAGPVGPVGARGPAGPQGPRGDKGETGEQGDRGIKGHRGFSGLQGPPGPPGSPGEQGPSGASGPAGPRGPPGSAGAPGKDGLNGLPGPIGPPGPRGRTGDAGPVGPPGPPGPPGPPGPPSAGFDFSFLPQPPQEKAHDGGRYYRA
T2 sequence (P08123 80-1119 limits assumed, chain 2 of 2): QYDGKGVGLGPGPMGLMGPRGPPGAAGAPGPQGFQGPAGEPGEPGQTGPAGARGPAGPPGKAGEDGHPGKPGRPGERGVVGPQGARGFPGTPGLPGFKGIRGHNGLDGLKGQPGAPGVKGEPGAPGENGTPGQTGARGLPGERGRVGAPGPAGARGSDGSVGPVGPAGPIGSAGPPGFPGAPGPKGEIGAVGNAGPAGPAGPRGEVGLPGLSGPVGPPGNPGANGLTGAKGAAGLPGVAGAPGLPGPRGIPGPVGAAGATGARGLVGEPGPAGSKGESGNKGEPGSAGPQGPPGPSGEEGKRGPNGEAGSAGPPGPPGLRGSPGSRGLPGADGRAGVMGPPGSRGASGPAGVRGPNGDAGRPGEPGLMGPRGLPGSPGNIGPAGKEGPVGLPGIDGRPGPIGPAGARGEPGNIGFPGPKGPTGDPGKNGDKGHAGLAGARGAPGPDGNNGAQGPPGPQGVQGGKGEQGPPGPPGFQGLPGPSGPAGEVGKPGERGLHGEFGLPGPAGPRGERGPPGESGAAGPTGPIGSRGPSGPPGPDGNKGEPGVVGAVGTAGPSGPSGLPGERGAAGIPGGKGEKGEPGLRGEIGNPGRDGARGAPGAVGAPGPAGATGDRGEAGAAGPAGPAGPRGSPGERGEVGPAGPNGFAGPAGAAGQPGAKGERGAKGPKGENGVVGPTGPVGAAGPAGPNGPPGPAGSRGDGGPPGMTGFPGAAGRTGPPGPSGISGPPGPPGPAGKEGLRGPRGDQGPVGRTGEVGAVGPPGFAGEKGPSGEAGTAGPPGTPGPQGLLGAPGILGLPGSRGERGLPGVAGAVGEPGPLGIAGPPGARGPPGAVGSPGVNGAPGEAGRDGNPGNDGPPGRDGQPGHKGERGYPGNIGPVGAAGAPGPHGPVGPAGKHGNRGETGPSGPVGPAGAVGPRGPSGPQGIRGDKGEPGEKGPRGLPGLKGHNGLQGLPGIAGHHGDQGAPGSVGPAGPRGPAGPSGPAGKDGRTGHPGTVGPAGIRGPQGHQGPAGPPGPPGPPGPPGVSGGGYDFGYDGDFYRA

B1: MGD^UCA (antibody, human IgG1, kappa)
heavy: not shown
light: AIRMTQSPSSFSASTGDRVTITCRASQGISSYLAWYQQKPGKAPKLLIYAASTLQSGVPSRFSGSGSGTDFTLTISCLQSEDFATYYCQQYYSYPPDFGQGTRLEIKRTVAAPSVFIFPPSDEQLKSGTASVVCLLNNFYPREAKVQWKVDNALQSGNSQESVTEQDSKDSTYSLSSTLTLSKADYEKHKVYACEVTHQGLSSPVTKSFNRGEC
notes: also called collagen-specific MGD^UCA antibody
- binding result [1]: no binding (tested: antibody 10 nM)

B2: C4 (bispecific antibody, human IgG1, kappa)
heavy: not shown
light: EIVLTQSPGTLSLSPGETAILSCRASQSVSSSLLAWYQQKPGQAPRLLIYGASNRATGIRGRFSGSGSGTDFTLTISRLEPEDFVLYYCQHYGSRVTFGQGTKLEIKRTVAAPSVFIFPPSDEQLKSGTASVVCLLNNFYPREAKVQWKVDNALQSGNSQESVTEQDSKDSTYSLSSTLTLSKADYEKHKVYACEVTHQGLSSPVTKSFNRGEC
notes: also called construct C4; bispecific construct C4
- binding result [2]: binds

B3: C5b (antibody, human IgG1, kappa)
heavy: not shown
light: EIVLTQSPGTLSLSPGETAILSCRASQSVSSSLLAWYQQKPGQAPRLLIYGASNRATGIRGRFSGSGSGTDFTLTISRLEPEDFVLYYCQHYGSRVTFGQGTKLEIKRTVAAPSVFIFPPSDEQLKSGTASVVCLLNNFYPREAKVQWKVDNALQSGNSQESVTEQDSKDSTYSLSSTLTLSKADYEKHKVYACEVTHQGLSSPVTKSFNRGEC
notes: also called construct C5b
- binding result [3]: binds

B4: C5 (antibody, human IgG1, kappa)
heavy: not shown
light: EIVLTQSPGTLSLSPGETAILSCRASQSVSSSLLAWYQQKPGQAPRLLIYGASNRATGIRGRFSGSGSGTDFTLTISRLEPEDFVLYYCQHYGSRVTFGQGTKLEIKRTVAAPSVFIFPPSDEQLKSGTASVVCLLNNFYPREAKVQWKVDNALQSGNSQESVTEQDSKDSTYSLSSTLTLSKADYEKHKVYACEVTHQGLSSPVTKSFNRGEC
notes: also called construct C5
- binding result [2]: binds

B5: C6b (antibody, human IgG1, kappa)
heavy: not shown
light: EIVLTQSPGTLSLSPGETAILSCRASQSVSSSLLAWYQQKPGQAPRLLIYGASNRATGIRGRFSGSGSGTDFTLTISRLEPEDFVLYYCQHYGSRVTFGQGTKLEIKRTVAAPSVFIFPPSDEQLKSGTASVVCLLNNFYPREAKVQWKVDNALQSGNSQESVTEQDSKDSTYSLSSTLTLSKADYEKHKVYACEVTHQGLSSPVTKSFNRGEC
notes: also called construct C6b
- binding result [3]: binds

B6: GCE536 (antibody, human IgG1, kappa)
heavy: not shown
light: EIVLTQSPGTLSLSPGETAILSCRASQSVSSSLLAWYQQKPGQAPRLLIYGASNRATGIRGRFSGSGSGTDFTLTISRLEPEDFVLYYCQHYGSRVTFGQGTKLEIKRTVAAPSVFIFPPSDEQLKSGTASVVCLLNNFYPREAKVQWKVDNALQSGNSQESVTEQDSKDSTYSLSSTLTLSKADYEKHKVYACEVTHQGLSSPVTKSFNRGEC
notes: also called anti-GM-CSF antibody; scaffold antibody
- binding result [2]: binds
- binding result [4]: no binding (tested: collagen 50 nM)

B7: TT107 (antibody, V domains shown)
VH: QVQLIQSGGGLVKPGGSLRLSCAASGFTFSDYYMSWIRQVPGKGLEWISVISATTGYTDYADSVKGRFTISRDNAKNSVFLQMNSLRVDDMAVYYCAREVLGTAWFDYWGQGTLVTISS
VL: EIVLTQSPGTLSLSPGERATLSCRASQSVTSNYLAWYQQKPGQAPRLLIYGVSRRATGIPDRFSGSGSGTDFALTISRLEPEDFAVYYCQQYRSSPRTFGPGTKVEFKR
notes: also called TT-specific monoclonal antibody
- binding result [5]: no binding (tested: GM-CSF 50 nM)
- binding result [6]: no binding (tested: collagen 50 nM)

B8: FI174 (antibody, V domains shown)
VH: QVQLVQSGAEVRKPGSSVKVSCKTSGGIIRKYALSWVRQAPGQGLEWMGGIIAIFGTTNYAQKFQGRVTINADESTSTVYLELSSLTSEDTAIYYCAGSATYYESRFDYWGQGTLVTVSS
VL: EIVLTQSPGTLSLSPGARATLSCRASQSVSSSSLAWYQQKPGQAPRLLIYDASSRATGIPDRFSGSGSGTDFTLTISRLEPEDFAVYYCHQYGDSRKTFGQGTKVEIKR
notes: also called F1174; FI74
- binding result [1]: no binding (tested: antibody 10 nM)
